Experimental findings from publication PMC6627510 (2019) are described below.

In this experiment the target is Stl_(SaPIbov1) protein (staphylococcal repressor) (Staphylococcus aureus). The experiment is described as follows: ITC. In general terms: In ITC the heat of successive injections is recorded.

B1: Escherichia coli dUTPase Q93H mutant (enzyme)
chain: not shown
With B1, binding was characterised by a dissociation constant (Kd) of 0.0608 µM.

B2: Escherichia coli dUTPase Q93R mutant (enzyme)
chain: not shown
In the case of B2, the affinity, expressed as Kd, was 0.0972 µM.
